The Human Domainome abundance scans (Beltran et al. 2025)
± gives the uncertainty stated by the source.

B1: Friend leukemia integration 1 transcription factor, residues 116 to 197; numbered along this chain, Q01543 (parent)
chain: NMTTNERRVIVPADPTLWTQEHVRQWLEWAIKEYSLMEIDTSFFQNMDGKELCKMNKEDFLRATTLYNTEVLLSHLSYLRES

Variants of: B1
Test: abundance fitness (aPCA) (normalised: wild type 0, dead -1); higher = more abundant; growth selection in yeast, the domain comes from the species named
Conditions: Homo sapiens

Variant	abundance fitness
NMTTNERRVIVPADPTLWTQEHVRQWLEWAIKEYPLMEIDTSFFQNMDGKELCKMNKEDFLRATTLYNTEVLLSHLSYLRES	-0.228 ± 0.079
NMTTNERRVIVPADPTLWTQEHVRQWLEWAIKEYELMEIDTSFFQNMDGKELCKMNKEDFLRATTLYNTEVLLSHLSYLRES	-0.101 ± 0.08
NMTTNERRVIVPADPTLWTQEHVRQWLEWAIKEYLLMEIDTSFFQNMDGKELCKMNKEDFLRATTLYNTEVLLSHLSYLRES	-0.335 ± 0.069
NMTTNERRVIVPADPTLWTQEHVRQWLEWAIKEYFLMEIDTSFFQNMDGKELCKMNKEDFLRATTLYNTEVLLSHLSYLRES	-0.33 ± 0.15
NMTTNERRVIVPADPTLWTQEHVRQWLEWAIKEYWLMEIDTSFFQNMDGKELCKMNKEDFLRATTLYNTEVLLSHLSYLRES	-0.509 ± 0.14
NMTTNERRVIVPADPTLWTQEHVRQWLEWAIKEYDLMEIDTSFFQNMDGKELCKMNKEDFLRATTLYNTEVLLSHLSYLRES	-0.02 ± 0.16
NMTTNERRVIVPADPTLWTQEHVRQWLEWAIKEYHLMEIDTSFFQNMDGKELCKMNKEDFLRATTLYNTEVLLSHLSYLRES	-0.132 ± 0.19
NMTTNERRVIVPADPTLWTQEHVRQWLEWAIKEYNLMEIDTSFFQNMDGKELCKMNKEDFLRATTLYNTEVLLSHLSYLRES	0.011 ± 0.24
NMTTNERRVIVPADPTLWTQEHVRQWLEWAIKEYALMEIDTSFFQNMDGKELCKMNKEDFLRATTLYNTEVLLSHLSYLRES	-0.076 ± 0.063
NMTTNERRVIVPADPTLWTQEHVRQWLEWAIKEYMLMEIDTSFFQNMDGKELCKMNKEDFLRATTLYNTEVLLSHLSYLRES	-0.271 ± 0.073
NMTTNERRVIVPADPTLWTQEHVRQWLEWAIKEYGLMEIDTSFFQNMDGKELCKMNKEDFLRATTLYNTEVLLSHLSYLRES	0.073 ± 0.07
NMTTNERRVIVPADPTLWTQEHVRQWLEWAIKEYVLMEIDTSFFQNMDGKELCKMNKEDFLRATTLYNTEVLLSHLSYLRES	-0.405 ± 0.08
NMTTNERRVIVPADPTLWTQEHVRQWLEWAIKEYCLMEIDTSFFQNMDGKELCKMNKEDFLRATTLYNTEVLLSHLSYLRES	-0.183 ± 0.18
NMTTNERRVIVPADPTLWTQEHVRQWLEWAIKEYRLMEIDTSFFQNMDGKELCKMNKEDFLRATTLYNTEVLLSHLSYLRES	-0.156 ± 0.066
NMTTNERRVIVPADPTLWTQEHVRQWLEWAIKEYQLMEIDTSFFQNMDGKELCKMNKEDFLRATTLYNTEVLLSHLSYLRES	-0.105 ± 0.12
NMTTNERRVIVPADPTLWTQEHVRQWLEWAIKEYTLMEIDTSFFQNMDGKELCKMNKEDFLRATTLYNTEVLLSHLSYLRES	-0.021 ± 0.068
NMTTNERRVIVPADPTLWTQEHVRQWLEWAIKEYSNMEIDTSFFQNMDGKELCKMNKEDFLRATTLYNTEVLLSHLSYLRES	-0.742 ± 0.28

Variant	abundance fitness
NMTTNERRVIVPADPTLWTQEHVRQWLEWAIKEYSPMEIDTSFFQNMDGKELCKMNKEDFLRATTLYNTEVLLSHLSYLRES	-0.573 ± 0.12
NMTTNERRVIVPADPTLWTQEHVRQWLEWAIKEYSQMEIDTSFFQNMDGKELCKMNKEDFLRATTLYNTEVLLSHLSYLRES	-0.603 ± 0.18
NMTTNERRVIVPADPTLWTQEHVRQWLEWAIKEYSHMEIDTSFFQNMDGKELCKMNKEDFLRATTLYNTEVLLSHLSYLRES	-0.521 ± 0.37
NMTTNERRVIVPADPTLWTQEHVRQWLEWAIKEYSRMEIDTSFFQNMDGKELCKMNKEDFLRATTLYNTEVLLSHLSYLRES	-1.04 ± 0.23
NMTTNERRVIVPADPTLWTQEHVRQWLEWAIKEYSFMEIDTSFFQNMDGKELCKMNKEDFLRATTLYNTEVLLSHLSYLRES	-0.195 ± 0.17
NMTTNERRVIVPADPTLWTQEHVRQWLEWAIKEYSSMEIDTSFFQNMDGKELCKMNKEDFLRATTLYNTEVLLSHLSYLRES	-0.566 ± 0.12
NMTTNERRVIVPADPTLWTQEHVRQWLEWAIKEYSVMEIDTSFFQNMDGKELCKMNKEDFLRATTLYNTEVLLSHLSYLRES	-0.21 ± 0.082
NMTTNERRVIVPADPTLWTQEHVRQWLEWAIKEYSIMEIDTSFFQNMDGKELCKMNKEDFLRATTLYNTEVLLSHLSYLRES	0.08 ± 0.17
NMTTNERRVIVPADPTLWTQEHVRQWLEWAIKEYSGMEIDTSFFQNMDGKELCKMNKEDFLRATTLYNTEVLLSHLSYLRES	-0.467 ± 0.086
NMTTNERRVIVPADPTLWTQEHVRQWLEWAIKEYSDMEIDTSFFQNMDGKELCKMNKEDFLRATTLYNTEVLLSHLSYLRES	-0.521 ± 0.19
NMTTNERRVIVPADPTLWTQEHVRQWLEWAIKEYSEMEIDTSFFQNMDGKELCKMNKEDFLRATTLYNTEVLLSHLSYLRES	-0.605 ± 0.14
NMTTNERRVIVPADPTLWTQEHVRQWLEWAIKEYSAMEIDTSFFQNMDGKELCKMNKEDFLRATTLYNTEVLLSHLSYLRES	-0.83 ± 0.14
NMTTNERRVIVPADPTLWTQEHVRQWLEWAIKEYSKMEIDTSFFQNMDGKELCKMNKEDFLRATTLYNTEVLLSHLSYLRES	-0.839 ± 0.36
NMTTNERRVIVPADPTLWTQEHVRQWLEWAIKEYSCMEIDTSFFQNMDGKELCKMNKEDFLRATTLYNTEVLLSHLSYLRES	-0.769 ± 0.28
NMTTNERRVIVPADPTLWTQEHVRQWLEWAIKEYSTMEIDTSFFQNMDGKELCKMNKEDFLRATTLYNTEVLLSHLSYLRES	-0.51 ± 0.12
NMTTNERRVIVPADPTLWTQEHVRQWLEWAIKEYSLMFIDTSFFQNMDGKELCKMNKEDFLRATTLYNTEVLLSHLSYLRES	-0.329 ± 0.18
